Drawing on the array DNA melting data of Ke et al., this text covers Tm for 47 substances.

The nature of the series: melting temperature; melt of duplexes. The note with it: sodium 0.0675 M; strand 1 µM.
Take “CGACGTGCCGTATGTGCTG+CAGCACATTAGGCACGTCG (((((((((..((((((((+))))))))..)))))))))”: the Tm was 57.1 °C.

For the substance “CGACGTGCCAGATGTGCTG+CAGCACATACGGCACGTCG (((((((((..((((((((+))))))))..)))))))))”, the melting temperature (Tm) was 54.7 °C.

Take “CGACGTGCAGCATGTGCTG+CAGCACATTGGGCACGTCG ((((((((...((((((((+))))))))...))))))))”: the Tm worked out at 47.2 °C.

For “CGACGTGCGCTATGTGCTG+CAGCACATTAAGCACGTCG ((((((((...((((((((+))))))))...))))))))”, the Tm turned out to be 52.8 °C.

Take “CGACGTGCTAGATGTGCTG+CAGCACATATCGCACGTCG ((((((((.(.((((((((+)))))))).).))))))))”: the Tm came to 51 °C.

Take “CGACGTGCGTTATGTGCTG+CAGCACATTACGCACGTCG ((((((((((.((((((((+)))))))).))))))))))”: the Tm was determined as 58.6 °C.

With “CGACGTGCACAATGTGCTG+CAGCACATATCGCACGTCG ((((((((...((((((((+))))))))...))))))))”, the Tm was 44.6 °C.

As to “CGACGTGCTGGATGTGCTG+CAGCACATAGTGCACGTCG ((((((((...((((((((+))))))))...))))))))”, the Tm was found to be 45 °C.

As to “CGACGTGCCACATGTGCTG+CAGCACATACAGCACGTCG ((((((((...((((((((+))))))))...))))))))”, the midpoint of thermal melting (Tm) was 48.6 °C.

For “CGACGTGCGTAATGTGCTG+CAGCACATCACGCACGTCG ((((((((((.((((((((+)))))))).))))))))))”, the Tm stood at 58 °C.

“CGACGTGCTGTATGTGCTG+CAGCACATTACGCACGTCG ((((((((...((((((((+))))))))...))))))))”: the Tm was 51 °C.

With “CGACGTGCGCGATGTGCTG+CAGCACATGTGGCACGTCG ((((((((...((((((((+))))))))...))))))))”, the Tm was found to be 51.7 °C.

“CGACGTGCTACATGTGCTG+CAGCACATGCCGCACGTCG ((((((((..(((((((((+)))))))))..))))))))”: the Tm came out at 52.3 °C.

Consider “CGACGTGCGTAATGTGCTG+CAGCACATATCGCACGTCG (((((((((..((((((((+))))))))..)))))))))”, for which the Tm came out at 55.6 °C.

Turning to “CGACGTGCGGTATGTGCTG+CAGCACATCTGGCACGTCG ((((((((...((((((((+))))))))...))))))))”, the Tm was 51.6 °C.

For the substance “CGACGTGCCTTATGTGCTG+CAGCACATGCTGCACGTCG ((((((((...((((((((+))))))))...))))))))”, the Tm is 45.1 °C.

As for “CGACGTGCAATATGTGCTG+CAGCACATTGAGCACGTCG ((((((((...((((((((+))))))))...))))))))”, the Tm worked out at 50.4 °C.

With “CGACGTGCCGAATGTGCTG+CAGCACATGACGCACGTCG ((((((((...((((((((+))))))))...))))))))”, the Tm is 50.1 °C.

Take “CGACGTGCGATATGTGCTG+CAGCACATGGAGCACGTCG ((((((((...((((((((+))))))))...))))))))”: the Tm is 57.4 °C.

Consider “CGACGTGCTCCATGTGCTG+CAGCACATGTCGCACGTCG ((((((((..(((((((((+)))))))))..))))))))”, for which the Tm amounted to 52.1 °C.

On to “CGACGTGCTCGATGTGCTG+CAGCACATCCCGCACGTCG ((((((((..(((((((((+)))))))))..))))))))”, for which the Tm was determined as 52.1 °C.

As to “CGACGTGCTATATGTGCTG+CAGCACATTCCGCACGTCG ((((((((...((((((((+))))))))...))))))))”, the Tm amounted to 47.8 °C.

For “CGACGTGCGTCATGTGCTG+CAGCACATGACGCACGTCG (((((((((((((((((((+)))))))))))))))))))”, the Tm is 66.4 °C.

Regarding “CGACGTGCAAGATGTGCTG+CAGCACATGGAGCACGTCG ((((((((...((((((((+))))))))...))))))))”, the Tm was 51.6 °C.

Take “CGACGTGCTAAATGTGCTG+CAGCACATAATGCACGTCG ((((((((...((((((((+))))))))...))))))))”: the Tm is 50.7 °C.

With “CGACGTGCAACATGTGCTG+CAGCACATCCGGCACGTCG ((((((((...((((((((+))))))))...))))))))”, the midpoint of thermal melting (Tm) stood at 47.7 °C.

In the case of “CGACGTGCTTGATGTGCTG+CAGCACATAGAGCACGTCG (((((((((..((((((((+))))))))..)))))))))”, the Tm is 54.2 °C.

For “CGACGTGCCACATGTGCTG+CAGCACATGGAGCACGTCG ((((((((..(((((((((+)))))))))..))))))))”, the Tm was 56.1 °C.

As for “CGACGTGCGCGATGTGCTG+CAGCACATGCTGCACGTCG ((((((((...((((((((+))))))))...))))))))”, the Tm is 52.9 °C.

With “CGACGTGCTTCATGTGCTG+CAGCACATGCTGCACGTCG ((((((((..(((((((((+)))))))))..))))))))”, the Tm worked out at 53.1 °C.

In the case of “CGACGTGCCAAATGTGCTG+CAGCACATCTTGCACGTCG ((((((((.(.((((((((+)))))))).).))))))))”, the Tm amounted to 48.7 °C.

Regarding “CGACGTGCCGGATGTGCTG+CAGCACATAGGGCACGTCG (((((((((..((((((((+))))))))..)))))))))”, the Tm came to 55.9 °C.

Regarding “CGACGTGCAAAATGTGCTG+CAGCACATCTAGCACGTCG ((((((((.(.((((((((+)))))))).).))))))))”, the Tm was 49.5 °C.

As to “CGACGTGCCTAATGTGCTG+CAGCACATGCCGCACGTCG ((((((((...((((((((+))))))))...))))))))”, the Tm was found to be 48.5 °C.

“CGACGTGCTAAATGTGCTG+CAGCACATAGTGCACGTCG ((((((((...((((((((+))))))))...))))))))”: the Tm amounted to 45.2 °C.

Consider “CGACGTGCCGGATGTGCTG+CAGCACATATCGCACGTCG ((((((((...((((((((+))))))))...))))))))”, for which the Tm stood at 49.7 °C.

For “CGACGTGCCAGATGTGCTG+CAGCACATTCCGCACGTCG ((((((((...((((((((+))))))))...))))))))”, the Tm is 49.6 °C.

On to “CGACGTGCTGCATGTGCTG+CAGCACATGCGGCACGTCG ((((((((.((((((((((+)))))))))).))))))))”, for which the Tm amounted to 63 °C.

For the substance “CGACGTGCTTGATGTGCTG+CAGCACATGATGCACGTCG ((((((((.(.((((((((+)))))))).).))))))))”, the Tm worked out at 51.6 °C.

For the substance “CGACGTGCTGCATGTGCTG+CAGCACATACAGCACGTCG ((((((((((.((((((((+)))))))).))))))))))”, the Tm came to 58.2 °C.

For “CGACGTGCGCAATGTGCTG+CAGCACATCCAGCACGTCG ((((((((...((((((((+))))))))...))))))))”, the Tm came out at 51.1 °C.

Regarding “CGACGTGCAGAATGTGCTG+CAGCACATCTTGCACGTCG (((((((((..((((((((+))))))))..)))))))))”, the Tm was 52.3 °C.

For “CGACGTGCTTGATGTGCTG+CAGCACATCCTGCACGTCG ((((((((..(((((((((+)))))))))..))))))))”, the Tm is 54.5 °C.

“CGACGTGCTATATGTGCTG+CAGCACATGGTGCACGTCG ((((((((...((((((((+))))))))...))))))))”: the Tm was found to be 47.7 °C.

As to “CGACGTGCTGCATGTGCTG+CAGCACATGAGGCACGTCG ((((((((..(((((((((+)))))))))..))))))))”, the Tm stood at 56.8 °C.

As for “CGACGTGCTAAATGTGCTG+CAGCACATTACGCACGTCG ((((((((..(((((((((+)))))))))..))))))))”, the melting temperature (Tm) amounted to 51.4 °C.

For “CGACGTGCTCCATGTGCTG+CAGCACATGGAGCACGTCG (((((((((((((((((((+)))))))))))))))))))”, the Tm came to 66.1 °C.

Broadly, the Tm is the temperature at which the thermal transition is half complete.
